Measured values published in the supplement of paper PMC10567573.

B1: CPXM2 (parent)
chain: EILGCPLPDPNNYYHRRNEMTTTD
B2: SPACA3 (parent)
chain: FTSGFNAAALDYEADGSTNNGIFQ

Variants of: B1
Assay: protein stability index of a GFP-peptide fusion (GPS, HEK-293T) (PSI 1-6); higher = more stable
Conditions: c terminus: a fixed tail appended
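Further: lentivirally expressed fusions sorted by FACS into six bins by GFP to DsRed ratio, PSI derived from sequencing read proportions per bin multiplied by bin number.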

Protein stability index, by site and new letter:
T23: C 3.8, R 3.37, G 3.29, H 3.6, P 3.67, V 2.85
E19: F 2.62, K 2.83, M 2.48, D 3.62, H 3.1, Y 2.6
T21: K 4.37, G 3.55, M 3.23
D9: N 3.18, Y 2.75, E 3.15, P 3.26, T 3.25
T22: V 3.38, Q 4.18, Y 3.31, D 4.09, S 3.48, L 2.69
H15: W 2.91, N 3.68, S 3.56
R17: F 2.48, L 2.7, V 3.22, M 3.8, G 3.79, W 2.63, Y 2.85
M20: C 3.69, W 3.12, V 3.7
N12: C 3.44, D 4.07, E 3.85, Y 3.35, H 3.36, S 3.09, I 3.05
I2: G 5.13, V 3.79, Q 4.76
Y14: G 4.13, D 4.31, M 3.57, K 3.88, R 3.92
G4: K 3.39, N 2.93
Y13: E 4.29, Q 4.06, T 4.35, A 4.21, P 4.12
N18: G 3.77, V 2.77
C5: H 3.91, N 3.61, F 3.65, T 3.8
R16: C 3.15, T 3.48, A 3.84, W 2.76, M 3.48, Q 4.03, E 3.94, D 3.98, L 3.28, Y 2.83
L7: V 3.31, G 3.48, F 3.38, R 3.69, E 4.08
E1: T 3.69, Y 2.29, S 3.54, C 2.83, Q 3.02
D24: K 3.65, R 3.07, V 3.02, E 3.53
P6: E 3.58, Q 2.92
P10: S 3.42, G 3.95, Y 2.91, A 3.45, D 3.88, W 2.72
P8: A 2.9, T 3.12, H 2.82, Q 3.56, W 2.62
L3: G 4.45, Q 4.13, T 3.99, V 3.85
N11: W 2.29, L 2.98, M 3.21, H 3.19, T 3.48

Variants of: B2
Assay: as above
Conditions: c terminus: a fixed tail appended

Protein stability index: each site, then its substitutions
T2: F 3.13, Q 2.26, G 3.11, L 2.78, R 2.71, K 3.62, W 2.91
L10: W 1.95, M 2.08, E 3.02, Q 2.14
N19: A 1.67, S 2.38, P 2.21, M 2.21, K 1.63, V 1.76, R 1.66, G 2.03, C 2.31, Y 1.83, F 2.24
S17: G 2.05, D 2.21, P 2.05, T 2.19, F 1.74, E 2.13, A 2.1, N 2.21, L 1.71, I 1.96, Q 2.35, Y 1.93, R 1.95
Q24: R 2.2, I 2.18, V 1.17, M 1.46, D 2.02, H 2.46, Y 1.74, P 1.99, K 1.87, E 2.33
A8: Q 1.84, G 1.82, M 1.64, I 2.34, R 2.29, L 1.73, F 2.73, D 2.98, T 1.98
D15: W 2.46, S 2, L 1.58
A7: M 2.14, P 1.82, W 2.39, L 2.88, R 2, E 2.8, F 3.08, Y 2.31, Q 2.02, N 1.73
N6: E 2.88, P 1.61, W 3.02, S 1.85, G 1.83, T 1.61, I 1.43, R 1.41, D 2.99, V 2.08, C 3, Y 2.82
T18: Y 2.02, H 1.83, S 2.08, G 2.31, L 2.07, A 1.87, Q 1.82, K 2.78, W 1.59
F1: A 4.21, K 4.54, G 4.61, R 4.61, I 3.95, H 4.48, M 3.99, S 4.64
D11: G 2.46, F 3.1, K 2.43, Y 2.66, T 2, S 1.5, W 1.4, C 2.03, R 2.2, M 1.98
I22: P 1.94, W 2.15, H 1.95, M 2.5, D 2.41, C 1.74
N20: A 2.31, P 2.28, M 1.87, W 1.43, T 1.93, S 2.15, H 1.75, F 2.03, I 1.9
E13: L 1.72, W 3.11, D 2.32, A 1.76, N 2.09, R 1.66, S 1.78, I 1.36, G 1.44, P 1.55, V 2.08, K 2.08, Y 1.61
F23: M 2.55, D 2.5, E 2.28, T 2.92, V 2.11, Y 1.98, I 2, C 1.9, R 2.16, S 2.2, P 2.42
S3: Y 2.03, D 2.55, C 1.65, W 2.26, A 2.37, V 2.07, H 2.14, L 2.2, R 2.46, I 1.76, T 1.84, Q 2.19
G4: S 2.38, N 2.3, Q 2.43, F 2.13, T 2.42, M 1.74, D 2.79, Y 1.68, W 2.98
G21: R 1.75, W 1.58, K 2.33, I 1.51, V 1.98, Q 1.7, A 1.91, P 2.12, Y 1.75
A14: C 2.37, W 1.94, D 2.13, Q 2.1, Y 2.09, S 1.95, G 1.76, N 1.72, P 2, R 2.27, K 2.5, E 2.14
F5: E 4.38, W 3.06, P 3.81, C 3.03, N 4.47, S 4.18, V 4.01, Q 4.12
G16: I 1.92, W 1.15, R 1.87, Q 1.9, F 1.96, T 2.26
A9: M 2.08, K 1.62, T 1.69, L 1.78, C 1.83, P 1.86, V 1.91, I 2.44, R 1.99, S 2.5
Y12: A 2.09, R 1.78, W 1.39, D 2.3, K 2.04, G 2.22, E 2.7, P 2.09, S 1.93, H 2.04
